Test results reported in US20240425885.

Experiments:
Assay in all cases: cleavage_in_vitro
[1] = system: T1, OMNI-134 (metagenomic, unknown); settings: TXTL; PAM NRAANYNN
T1 sequence: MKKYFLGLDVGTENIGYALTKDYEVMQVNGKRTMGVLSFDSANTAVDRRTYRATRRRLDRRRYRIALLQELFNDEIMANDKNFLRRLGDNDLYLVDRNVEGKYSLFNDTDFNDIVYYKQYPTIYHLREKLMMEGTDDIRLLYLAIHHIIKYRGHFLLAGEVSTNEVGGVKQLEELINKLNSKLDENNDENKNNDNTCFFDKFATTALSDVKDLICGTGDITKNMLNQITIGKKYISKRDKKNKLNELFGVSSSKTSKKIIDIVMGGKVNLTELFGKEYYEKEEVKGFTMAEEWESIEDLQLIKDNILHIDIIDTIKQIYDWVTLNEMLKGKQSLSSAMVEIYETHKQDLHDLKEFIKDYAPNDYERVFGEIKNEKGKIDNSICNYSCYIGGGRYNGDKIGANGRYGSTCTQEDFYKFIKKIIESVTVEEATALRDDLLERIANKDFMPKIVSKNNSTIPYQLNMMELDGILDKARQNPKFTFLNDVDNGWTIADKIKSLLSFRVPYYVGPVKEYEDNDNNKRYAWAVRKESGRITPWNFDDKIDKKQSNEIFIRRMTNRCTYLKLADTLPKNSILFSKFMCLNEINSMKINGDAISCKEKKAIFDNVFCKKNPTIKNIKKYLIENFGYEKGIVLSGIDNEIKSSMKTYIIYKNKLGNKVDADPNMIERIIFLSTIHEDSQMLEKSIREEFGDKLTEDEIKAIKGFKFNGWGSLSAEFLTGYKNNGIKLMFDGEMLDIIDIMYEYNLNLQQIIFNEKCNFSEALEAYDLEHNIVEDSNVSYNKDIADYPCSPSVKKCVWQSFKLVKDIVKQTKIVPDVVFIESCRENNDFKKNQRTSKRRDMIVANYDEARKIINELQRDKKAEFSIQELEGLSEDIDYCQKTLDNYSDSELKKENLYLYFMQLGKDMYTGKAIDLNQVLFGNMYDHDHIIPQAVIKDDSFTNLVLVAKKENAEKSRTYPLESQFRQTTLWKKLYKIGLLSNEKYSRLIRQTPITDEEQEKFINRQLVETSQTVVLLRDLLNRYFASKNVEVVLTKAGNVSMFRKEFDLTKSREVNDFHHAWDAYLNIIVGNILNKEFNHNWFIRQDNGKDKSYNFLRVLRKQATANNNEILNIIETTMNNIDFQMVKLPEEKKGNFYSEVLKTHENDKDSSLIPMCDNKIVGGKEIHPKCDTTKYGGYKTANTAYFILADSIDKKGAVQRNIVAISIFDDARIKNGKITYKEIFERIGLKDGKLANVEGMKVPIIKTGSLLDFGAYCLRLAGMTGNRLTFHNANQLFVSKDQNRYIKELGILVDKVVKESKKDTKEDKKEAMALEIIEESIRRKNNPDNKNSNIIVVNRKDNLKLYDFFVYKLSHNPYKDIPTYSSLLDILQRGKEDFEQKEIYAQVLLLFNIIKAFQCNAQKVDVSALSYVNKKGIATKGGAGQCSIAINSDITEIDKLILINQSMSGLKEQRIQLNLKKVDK

[2] = system: T2, OMNI-107 (metagenomic, unknown); settings: TXTL; PAM NNNAANNN
T2 sequence: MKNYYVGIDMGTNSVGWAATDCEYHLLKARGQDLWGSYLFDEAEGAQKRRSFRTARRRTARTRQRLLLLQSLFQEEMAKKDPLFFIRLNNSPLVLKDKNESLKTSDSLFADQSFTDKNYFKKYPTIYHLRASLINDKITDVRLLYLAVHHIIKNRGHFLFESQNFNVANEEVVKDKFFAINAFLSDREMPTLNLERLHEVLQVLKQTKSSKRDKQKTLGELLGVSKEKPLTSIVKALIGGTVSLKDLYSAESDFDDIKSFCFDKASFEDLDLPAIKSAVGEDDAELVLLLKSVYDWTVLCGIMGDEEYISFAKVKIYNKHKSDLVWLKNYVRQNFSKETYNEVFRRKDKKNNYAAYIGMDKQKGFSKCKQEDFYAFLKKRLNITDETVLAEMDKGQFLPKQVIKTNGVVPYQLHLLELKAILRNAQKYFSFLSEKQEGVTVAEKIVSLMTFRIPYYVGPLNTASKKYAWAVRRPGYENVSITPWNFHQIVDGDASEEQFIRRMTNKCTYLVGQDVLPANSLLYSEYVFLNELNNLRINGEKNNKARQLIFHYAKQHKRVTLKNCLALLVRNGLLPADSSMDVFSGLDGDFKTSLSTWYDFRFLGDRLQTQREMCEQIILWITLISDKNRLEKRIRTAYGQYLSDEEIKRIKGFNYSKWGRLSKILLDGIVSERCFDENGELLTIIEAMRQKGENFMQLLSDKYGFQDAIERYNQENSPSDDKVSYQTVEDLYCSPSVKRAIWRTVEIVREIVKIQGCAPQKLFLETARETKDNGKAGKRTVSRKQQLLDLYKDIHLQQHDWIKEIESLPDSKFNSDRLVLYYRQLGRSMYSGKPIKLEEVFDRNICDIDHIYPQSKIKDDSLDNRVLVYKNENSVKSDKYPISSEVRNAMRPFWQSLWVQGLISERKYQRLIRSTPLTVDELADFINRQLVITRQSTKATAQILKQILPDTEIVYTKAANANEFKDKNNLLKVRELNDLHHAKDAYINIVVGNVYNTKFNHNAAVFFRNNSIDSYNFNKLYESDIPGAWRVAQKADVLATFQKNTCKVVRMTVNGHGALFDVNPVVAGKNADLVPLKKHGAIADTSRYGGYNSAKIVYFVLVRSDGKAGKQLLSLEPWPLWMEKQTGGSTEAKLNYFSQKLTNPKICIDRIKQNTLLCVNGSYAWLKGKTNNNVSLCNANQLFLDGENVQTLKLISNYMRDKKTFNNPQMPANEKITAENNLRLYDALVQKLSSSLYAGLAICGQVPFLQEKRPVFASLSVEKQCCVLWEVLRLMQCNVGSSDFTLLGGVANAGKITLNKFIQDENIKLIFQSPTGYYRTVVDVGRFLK

[3] = system: T3, OMNI-97 (metagenomic, unknown); settings: TXTL; PAM NNRCCANN
T3 sequence: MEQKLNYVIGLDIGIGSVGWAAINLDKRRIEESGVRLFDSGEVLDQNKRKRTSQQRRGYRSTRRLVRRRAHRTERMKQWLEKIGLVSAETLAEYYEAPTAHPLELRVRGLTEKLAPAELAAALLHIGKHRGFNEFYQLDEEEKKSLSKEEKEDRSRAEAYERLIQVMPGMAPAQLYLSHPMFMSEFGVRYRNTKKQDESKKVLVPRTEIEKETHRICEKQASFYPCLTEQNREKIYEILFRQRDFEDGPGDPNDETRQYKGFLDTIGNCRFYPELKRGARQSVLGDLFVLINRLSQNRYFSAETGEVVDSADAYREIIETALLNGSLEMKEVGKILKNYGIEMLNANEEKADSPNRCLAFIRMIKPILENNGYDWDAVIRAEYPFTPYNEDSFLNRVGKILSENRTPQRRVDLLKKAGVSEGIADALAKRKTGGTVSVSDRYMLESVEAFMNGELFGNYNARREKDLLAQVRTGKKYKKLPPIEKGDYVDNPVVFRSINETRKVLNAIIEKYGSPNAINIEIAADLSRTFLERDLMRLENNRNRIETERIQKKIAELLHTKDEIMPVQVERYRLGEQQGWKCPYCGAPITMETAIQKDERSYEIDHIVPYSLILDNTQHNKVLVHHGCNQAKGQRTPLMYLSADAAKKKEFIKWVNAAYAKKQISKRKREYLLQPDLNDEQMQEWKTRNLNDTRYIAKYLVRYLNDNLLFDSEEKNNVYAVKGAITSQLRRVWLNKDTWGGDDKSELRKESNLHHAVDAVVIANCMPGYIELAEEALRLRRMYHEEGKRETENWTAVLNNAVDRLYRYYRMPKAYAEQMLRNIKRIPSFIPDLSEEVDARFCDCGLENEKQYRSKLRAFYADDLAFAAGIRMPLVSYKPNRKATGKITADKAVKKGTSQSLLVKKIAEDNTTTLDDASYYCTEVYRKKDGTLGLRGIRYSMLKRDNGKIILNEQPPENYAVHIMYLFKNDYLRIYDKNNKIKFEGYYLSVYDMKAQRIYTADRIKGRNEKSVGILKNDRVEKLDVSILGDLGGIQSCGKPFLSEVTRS

Q: “GGAAGAGCAGAGCCUUGGUCUCGUUAUUUUGAAUACUAGAAAGUGUAUUUAAAGUAAAUAAAAAGUUAAAUUUAAAGAUAAAAGUAAAUAAUUAGUAAAUUAACUUCUGAUAAUGUGAAAUUCAUUUGUUUUUU / GGAAGAGCAGAGCCTTGGTCTCNNNNNNNN / NNNNNNNNGAGACCAAGGCTCTGCTCTTCC [T2 sgRNA 39 V1 ; T2 protospacer + 8N PAM library (pbPOS T2)]” was tested. Which activity (1-depletion score) [1] did it give?
A: The activity (1-depletion score) was 0.99.

Q: “GGAAGAGCAGAGCCUUGGUCUCGUUUGAGAGUAUUGUUAUUGAAAAAUAACAAUCGUUCAAAUAAGGUUUUACCUUAAGCAUCCUAUUGGAUCAGUCGACUAACCAGAGUCGACUAUUUUUU / GGAAGAGCAGAGCCTTGGTCTCNNNNNNNN / NNNNNNNNGAGACCAAGGCTCTGCTCTTCC [T2 sgRNA 34 V1 ; T2 protospacer + 8N PAM library (pbPOS T2)]” was tested. Which activity (1-depletion score) [1] did it give?
A: The activity (1-depletion score) was 0.94.

Q: “GGAAGAGCAGAGCCUUGGUCUCGUUUGAGAGUAUUGUUGAAAAACAAUCGUUCAAAUAAGGUUUUACCUUAAGCAUCCUAUUGGAUCAGUCGACUAAUCAGAGUCGACUAUUUUUU / GGAAGAGCAGAGCCTTGGTCTCNNNNNNNN / NNNNNNNNGAGACCAAGGCTCTGCTCTTCC [T2 sgRNA 19 V1 ; T2 protospacer + 8N PAM library (pbPOS T2)]” was tested. Which activity (1-depletion score) [1] did it give?
A: Its activity (1-depletion score) is 0.98.

Q: Which activity (1-depletion score) [2] does the source give for “GGAAGAGCAGAGCCUUGGUCUCGUUUGAGUAUGGUGUUAGAAAUAACACCAUUAGUUCAAAUAAGAUUUUUUCAAAUCGCCGAUUUUUCGGUAGUACACGAUGUGUACAUUGGAUCUGUUGCAAGACAGGUCCUUUUUUU / GGAAGAGCAGAGCCTTGGTCTCNNNNNNNN / NNNNNNNNGAGACCAAGGCTCTGCTCTTCC [T2 sgRNA 16 V1 ; T2 protospacer + 8N PAM library (pbPOS T2)]” here?
A: Its activity (1-depletion score) is 0.7.

Q: How did the activity (1-depletion score) [2] turn out when “GGAAGAGCAGAGCCUUGGUCUCGUUUGAGUAUGGUGUUAGAAAUAACACCAUUAGUUCAAAUAAGAUUUUUUCAAAUCGCCGAUUUUUCGGUAGUACACGAUGUGUACAUUUUUU / GGAAGAGCAGAGCCTTGGTCTCNNNNNNNN / NNNNNNNNGAGACCAAGGCTCTGCTCTTCC [T2 sgRNA 16 V3 ; T2 protospacer + 8N PAM library (pbPOS T2)]” was run?
A: The activity (1-depletion score) was 0.83.

Q: “GGAAGAGCAGAGCCUUGGUCUCGUUUUGGGCCUCUGAUGGGAAACCAUCAGAGACCUGAGAUAAGGCUUUAUGCCGUAGGGUAUGGCGGUAACCCGGAGUAUUCCGAAUCCGCUUUUUCUUUGCCUGUAAAUACAGUAUAACAUAUUAUUUCGUCCUUUUUU / GGAAGAGCAGAGCCTTGGTCTCNNNNNNNN / NNNNNNNNGAGACCAAGGCTCTGCTCTTCC [T2 sgRNA 8 V1 ; T2 protospacer + 8N PAM library (pbPOS T2)]” was tested. Which activity (1-depletion score) [3] did it give?
A: The activity (1-depletion score) was 0.93.

Q: How did the activity (1-depletion score) [3] turn out when “GGAAGAGCAGAGCCUUGGUCUCGUUUUGGGCCUCUGAUGGGAAACCAUCAGAGACCUGAGAUAAGGCUUUAUGCCGUAGGGUAUGGCGGUAACCCGGAGUAUUCCGAAUCCGCUUUUUUU / GGAAGAGCAGAGCCTTGGTCTCNNNNNNNN / NNNNNNNNGAGACCAAGGCTCTGCTCTTCC [T2 sgRNA 8 V3 ; T2 protospacer + 8N PAM library (pbPOS T2)]” was run?
A: Its activity (1-depletion score) is 0.97.
